Drawing on patent US20210347914A1 (BANYAN BIOMARKERS, published 2021), this text covers Kd, koff and kon for ten molecules.

Sequences and labels used below:
B1: UCH-L1-4 (antibody, V domains shown)
VH: AVQLQQSGPELVKPGASVKISCKTSGDTFTEHFMNWVKQSHGESLEWIGIINPYTDGTNYDQKFKDKATLTVDKSSSTAYMELRSLTSEDSAVYYCARWGGDGEGYWGQGTTLTVSS
VL: DIVMTQAAPSVSVTPGESVSISCRSSKSLLHSNGNTYLYWFLKRPGQSPQLLIYRMSNLASGVPDRVSGSGSGTAFTLRISRVEAEDVGIYYCMQHLEYPLTFGAGTKLELK
notes: also called mouse anti-UCH-L1 antibody UCH-L1-4
B2: UCH-L1-5 (antibody, V domains shown)
VH: EVKLVESGGGSVQPGGSLSLSCAASGFTFTEYYMSWVRQFPGKALEWLAFIRNRAHGYTTEYSASVKGRFTISRDNSQSILYLQMNALRTEDSATYYCASSYGAPFAYWGQGTLVSVSA
VL: DIVMTQAAPSVPVTPGESVSISCRSSKSLLHSDGNTYLYWFLQRPGQSPQLLIYRMSNLASGVPDRFSGSGSGTAFTLRISRVEAEDVGVYYCMQHLEYPLTFGAGTKLELK
notes: also called mouse anti-UCH-L1 antibody UCH-L1-5; HRP-labeled anti-UCH-L1 detection antibody
B3: UCH-L1-1 (antibody, V domains shown)
VH: QVQLQQPGSELVRPGASVKLSCKASGYTFTSYWMHWVKQRPGQGLEWIGNIYPGSGSTNYDEKFKSKATLTVDTSSSTAYMQLSSLTSEDSAVYYCTREDYWGQGTTLTVSS
VL: DVLMTQTPLSLPVSLGDQASISCRSSQNIVHSNGNTYLEWYLQKPGQSPKLLIYKVSNRFSGVPDRFSGSGSGTDFTLKISRVEAEDLGVYYCFQGSHVPFTFGSGTKLEIK
notes: also called mouse anti-UCH-L1 antibody UCH-L1-1
B4: UCH-L1-3 (antibody, V domains shown)
VH: QVQLQQPGSELVRPGASVKLSCRASGYTFTSYWIHWVKQRHGQGLEWIGNIYPGSGITNYDEKFKTKGTLTVDTSSSTVYMHLISLTSEDSAVYYCTREDYWGQGTTLTVSS
VL: DVLMTQTPLSLPVSLGDQASISCRSSQSIVHSNGNTYLEWYLQKPGQSPKLLIYKVSNRFSGVPDRFSGSGSGTDFTLKISGVETEDLGVYYCFQGSHVPFTFGGGTKLEIK
notes: also called mouse anti-UCH-L1 antibody UCH-L1-3
B5: UCH-L1-7 (antibody, V domains shown)
VH: EVQLQQSGPELVKPGASVKISCKTSGYTFTEYTMHWVKQSHGKSLDWIGGINPNNGRTSYNQKFKGKATLTVDKSSSTAYMELRSLTSEDSAVYYCARRLGRGFYFDYWGQGTTLTVSS
VL: DIVLTQSPASLAVSLGQRATISCRASESVDSYGNNLMHWYQQKPGQPPKLLIYLSSNLESGIPARFSGRGSRTDFTLTINPVEADDVATYYCQQSNGDPYTFGGGTKLEIK
notes: also called mouse anti-UCH-L1 antibody UCH-L1-7
B6: UCH-L1-8 (antibody, V domains shown)
VH: EVQLQQSGPDLVKPGTSVKISCKTSGYTFTEYTMHWVKQSHGRSLEWIGGLNPNNGRTSYNQKFKGKATLTVDKSSSIAYMELRSLTSEDSAVYYCARRLGRGFYFDYWGQGTTLTVSS
VL: DIVLTQSPASLAVSLGQRATISCRASESVDSYGNNLMHWYQQKPGQSPKLLIYRASNLESGIPGRFSGRGSRTDFTLTINPVEADDVATYYCQQSNGDPYTFGGGTKLEIK
notes: also called mouse anti-UCH-L1 antibody UCH-L1-8
B7: UCH-L1-10 (antibody, V domains shown)
VH: EVQLQQSGPDLVKPGTSVKISCKTSGYTFTEYTMHWVKQSHGRSLEWIGGFNPNNGRTSYNQKFKGKATLTVDKSSSTAYMELRSLTSEDSAVYYCSRRLYRGFYFDYWGQGTTLTVSS
VL: DIVLTQSPASLAVSLGQRATISCRASESVDSYGNNLMHWYQQKPGQSPKLLIYRASNLESGIPGRFSGRGSRTDFSLTINPVEADDVATYYCQQSNGDPYTFGGGTKLEIK
notes: also called mouse anti-UCH-L1 antibody UCH-L1-10
B8: UCH-L1-6 (antibody, V domains shown)
VH: EVQLQQSGPELVKPGASVKISCKTSGYTFTEYTMHWVKQSHGKSLDWIGGINPNNGRTSYNQKFKGKATLTVDKSSSTAYMDFRSLTSEDSAVYYCARRLGRGFYFDYWGQGTTLTVSS
VL: DIVLTQSPASLAVSLGQRATISCRASESVESYGNNLIHWYQQKLGQPPKLLIYLSSNLEPGIPARFSGRGSRTDFTLTINPVEADDVATYYCQQSNGDPYTFGGGTKLEIR
notes: also called mouse anti-UCH-L1 antibody UCH-L1-6
B9: UCH-L1-9 (antibody, V domains shown)
VH: EVQLQQSGPELVKPGASVKISCKTSGYTFTEYTMHWVKQSHGKSLDWIGGINPNNGRTSYNQKFKGKATLTVDKSSSTAYMELRSLTSEDSTVYYCARRLGRGFYFDYWGQGTTLTVSS
VL: DIVLTQSPASLAVSLGQRATISCRASESVDSYGNNFMHWYQQKPGQPPKLLIYLSSNLESGIPARFSGRGSRTDFTLTINPVEADDVATYYCQQSNGDPYTFGGGTKLEMK
notes: also called mouse anti-UCH-L1 antibody UCH-L1-9
B10: UCH-L1-2 (antibody, V domains shown)
VH: EVMLVESGGGLVKPGGSLKLSCAASGFIFSSHAMSWIRQIPEKRLEWVATISSGGSNTYYPDSVKGRFTISRDNAKNILYLQMSSLRSEDTAIYYCTRHGEVRRGYYFDYWGQGTTLTVSS
VL: DIQMTQTPSSLSASLGDRVTISCSASQGITNYLNWYQQKPDGTVKLLIYYTSSLHSGVPSRFSGSGSGTDYSLTISNLEPEDFATYYCQHYSNLPWTFGGGTKLEIK
notes: also called mouse anti-UCH-L1 antibody UCH-L1-2

For this assay, the target named is T1, Polyhistidine-tagged recombinant human UCH-L1 expressed from E. coli (human, UniProt P09936 1-223, limits assumed).
T1 construct: also called UCH-L1-His; not shown: polyhistidine tag
T1 sequence (P09936 whole entry): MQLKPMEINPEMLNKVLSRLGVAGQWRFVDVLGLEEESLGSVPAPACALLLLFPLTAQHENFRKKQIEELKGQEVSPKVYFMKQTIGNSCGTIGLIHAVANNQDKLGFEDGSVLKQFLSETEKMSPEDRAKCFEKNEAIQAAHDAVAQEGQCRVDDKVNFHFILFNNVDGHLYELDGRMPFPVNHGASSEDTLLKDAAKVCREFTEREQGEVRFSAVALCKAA
Briefly: BLI (Octet QKe); His-tagged UCH-L1 on anti-Penta-HIS sensor, antibody in solution. How it is done:
The rates of association (kₒₙ) and dissociation (koff) of the anti-UCH-L1 antibodies were determined by bio-layer interferometry using an Octet QK^e instrument according to the manufacturer's instructions (ForteBio). See Tobias et al., Biomolecular Binding Kinetic Assays in the Octet Platform, Application Note 14, ForteBio, Div. of Pall Life Sciences, 2013. Polyhistidine-tagged recombinant human UCH-L1 expressed from E. coli was used as the antigen. The antigen was bound at a concentration of […] to an anti-Penta-HIS(HIS1K) capture biosensor containing an anti-histidine antibody (ForteBio) for use with the Octet QK^e instrument.
(In general: BLI is a label-free optical method that tracks binding on a fibre tip over time.)
In the case of B1, the Kd came out at 0.0369 nM, the koff came to 1.4e-05 s⁻¹ and the kon stood at 378000 M⁻¹ s⁻¹.

For the molecule B2, the equilibrium dissociation constant (Kd) is below 0.001 nM, the koff came out at 1e-07 s⁻¹ and the on-rate constant (kon) came out at 459000 M⁻¹ s⁻¹.

In the case of B3, the Kd was below 0.001 nM, the koff is below 1e-07 s⁻¹ and the kon was 58800 M⁻¹ s⁻¹.

Consider B4, for which the dissociation constant (Kd) was 0.367 nM, the off-rate constant (koff) is 1.34e-05 s⁻¹ and the on-rate constant (kon) came to 36400 M⁻¹ s⁻¹.

For B5, the Kd turned out to be 0.0187 nM, the koff turned out to be 2.5e-06 s⁻¹ and the kon was found to be 133000 M⁻¹ s⁻¹.

B6: the Kd came out at 0.0474 nM, the koff came to 6.7e-06 s⁻¹ and the on-rate constant (kon) was 141000 M⁻¹ s⁻¹.

Take B7: the Kd is 0.043 nM, the koff worked out at 4.6e-06 s⁻¹ and the on-rate (kon) was 107000 M⁻¹ s⁻¹.

In the case of B8, the equilibrium dissociation constant (Kd) was below 0.001 nM, the dissociation rate constant (koff) turned out to be 1e-07 s⁻¹ and the kon is 145000 M⁻¹ s⁻¹.

For the molecule B9, the Kd came to 0.0857 nM, the dissociation rate constant (koff) stood at 1.01e-05 s⁻¹ and the kon is 118000 M⁻¹ s⁻¹.

Regarding B10, the dissociation constant (Kd) worked out at 0.207 nM, the koff was determined as 3.01e-05 s⁻¹ and the on-rate constant (kon) came to 146000 M⁻¹ s⁻¹.

As usually defined, the Kd is a measure of binding affinity in units of concentration. What is called koff is the rate constant with which the complex falls apart. By kon is commonly meant the second-order rate constant of association.
